Consider five molecules from US10335470B2, “Immunogenic compositions comprising progastrin and uses thereof” (Board of Regents, The University of Texas System, priority 2006, dated 2019).

Assay [1] has as its target T1, specific binding sites for rhPG (Annexin II) (Rattus norvegicus, UniProt Q07936).
T1 construct: endogenous in cells; host or cells: AR42J cells; IEC cells
Put plainly: Displacement of 125I-rhPG binding to AR42J and IEC cells. Particulars: 1.0 nM 125I-rhPG. Here is the method:
FIGS. 8A-8C show binding of ^125I-rhPG and ^125I-BH-CCK8 to a pancreatic cancer cell line, AR42J and intestinal epithelial cells (IEC). […] The relative binding affinity of the gastrin like peptides for the specific binding sites for rhPG (FIGS. 8A and B) (Annexin II) and CCK8 (FIG. 8C) to CCK2R was calculated. Data in each point represents the mean values of triplicate measurements from a single experiment and is representative of 2 similar experiments. The intra-experimental variation for each data point was <5-10%. The nM concentration of each peptide used is presented in a log-scale on the x-axis; the excess unlabeled peptide used for displacing the binding of the radio labeled ligand is presented in parentheses. The % loss in the relative binding of the radio labeled ligand in the presence of the increasing concentrations of the indicated non-labeled peptide is presented on the y-axis. IEC cells lack CCK2R binding sites and therefore binding with radio-labeled CCK8 was not examined with these cells.
The full-length recombinant human PG1-80 (rhPG) was generated in an E. coli expression system and purified and confirmed as described previously (Singh et al, 2003). rhPG was radio labeled with Na ^125I (Amersham, Chicago, Ill.), and the intact ^125I-rhPG purified by HPLC as described previously (Singh et al, 2003). For these experiments, AR42J cells were expanded in vitro in […] and grown to subconfluence in the growth medium containing 10% FCS. […] The binding data was analyzed by a Scatchard plot as described previously (Singh et al, 1995). […]
In order to define the RBA of various peptides for the PG binding sites on the cells, cells in suspension were incubated with 1.0 nM ^125I-rhPG in the presence or absence of increasing concentrations (0.1 nM-10.0 μM) of either the homologous or heterologous peptide. Non-specific binding was determined in the presence of 1000× excess of the non-labeled homologous peptide. […] Cell pellets were counted for ^125I in a gamma counter with ˜70% efficiency for ^125I. […]
On the technique in general: Loss of bound radioactivity is the signal in a displacement assay; it reports binding, not function.

Another assay relates to progastrin. Put plainly: Anti-progastrin antibody titers in immunized mice (solid phase ELISA). The class given is in vivo, mouse. Particulars: for anti-PG-antibody titers: PS21 transgenic and WT mice, CFA/IFA, s.c. day 1, 21, 42. (In general: In an ELISA, binding on a coated surface is turned into a signal by an enzyme label.)
The subject of assay [2] is aberrant crypt foci in PS21 (Fabp-PG) mice. Put plainly: Aberrant crypt foci in response to AOM in immunized PS21 Fabp-PG transgenic mice. It is filed as in vivo, mouse. Particulars: immunized PS21 mice vs wild type mice. As for the experimental part:
Aberrant crypt forci (ACFs) are pre-neoplastic markers of colon carcinogenesis and represent dysplastic growth of colonic crypts, which is the earliest stage of pre-cancerous changes in the colonic mucosa as described in detail previously (Singh et al, 2000b). […] These mice were immunized with either thioredoxin, or the progastrin peptide alone or the fusion protein (FP) which contained thioredoxin and progastrin.
All injections were administered subcutaneously. […] The ACFs were then counted.

The test system of the next assay is thioredoxin. The settings on record: all mouse groups (WT and PS21).
Chain of thioredoxin (P0AA25 whole entry): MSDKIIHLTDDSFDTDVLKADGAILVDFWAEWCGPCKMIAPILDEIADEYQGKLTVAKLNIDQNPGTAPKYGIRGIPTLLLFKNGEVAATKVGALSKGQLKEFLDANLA
For a further assay, the target named is T2, CCK2R (Rattus norvegicus, UniProt P30553).
T2 construct: endogenous in cells; host or cells: AR42J cells
T2 sequence (P30553 1-452): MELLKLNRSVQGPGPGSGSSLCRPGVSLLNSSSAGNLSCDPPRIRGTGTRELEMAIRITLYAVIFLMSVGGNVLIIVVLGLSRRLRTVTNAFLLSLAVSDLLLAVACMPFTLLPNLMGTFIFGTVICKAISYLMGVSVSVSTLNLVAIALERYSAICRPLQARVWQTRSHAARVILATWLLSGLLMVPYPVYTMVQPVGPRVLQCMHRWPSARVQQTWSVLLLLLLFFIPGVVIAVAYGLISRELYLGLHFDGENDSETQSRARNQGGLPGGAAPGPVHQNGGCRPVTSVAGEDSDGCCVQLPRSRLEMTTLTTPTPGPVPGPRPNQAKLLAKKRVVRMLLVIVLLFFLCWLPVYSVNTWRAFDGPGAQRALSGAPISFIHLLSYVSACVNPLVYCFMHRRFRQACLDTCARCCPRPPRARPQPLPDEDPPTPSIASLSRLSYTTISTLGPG
Put plainly: Displacement of 125I-BH-CCK8 binding to AR42J cells.

Assay [3] has as its system intestinal epithelial cells (IEC), colon cancer cells and pancreatic cancer cells. The settings on record: cited from earlier work.
Assay [4] has as its system mouse colon cancer (CA) cells. In words: Growth of mouse colon cancer (CA) cells in immunized Balb/c mice. The class given is in vivo. Particulars: CA cells inoculated at week 10, sacrificed week 14, control adjuvant alone, listed as hPG-immunogen. From the text:
(§1) FIGS. 6A-6C show immune response induced by hPG-fusion protein (FP) immunogen in different mouse models. […] The immunized Balb/c mice were inoculated with mouse CA cells at week 10 and sacrificed at week 14 and the tumors in the mice were weighed. Control mice received adjuvant alone. The weight of the tumors is indicated by an arrow against Ab titer of each mouse in mgs. Tumor weights from 3 of 6 animals are presented. […] FIGS. 6B and 6C show effect of vaccination with rhPG-FP immunogen on colon carcinogenesis in FVB/N mice. FVB/N mice were immunized with the hPG-fusion protein (FP) immunogen by 3-4 weekly injections and the PG-Ab titers were measured as described for the Balb/c mice. Once the mice developed significant PG-Ab titers, the mice were treated with azoxymethane (AOM) and the total number and size of tumors measured after 6 months of AOM treatment. The number of tumors (FIG. 6B) and the tumor burden (FIG. 6C) is presented herein. *=p<0.05 vs control values. Control mice were immunized with adjuvant alone.
(§2) Since autocrine and endocrine PG might be playing an important role in colon carcinogenesis, the possibility of using an rhPG fusion protein as an immunogen for treatment purposes was examined. Briefly, the rhPG fusion protein (FP) was used as an immunogen in Balb/C, FVB/N and FABP-PG mice. […]

For assay [5], the system named is colon tumors in FVB/N mice. Put plainly: AOM-induced colon carcinogenesis in immunized FVB/N mice. It is filed as in vivo, mouse. Particulars: 6 months after AOM, vs adjuvant alone.
Text: as §1, §2

T1 sequence (Q07936 2-339 limits assumed): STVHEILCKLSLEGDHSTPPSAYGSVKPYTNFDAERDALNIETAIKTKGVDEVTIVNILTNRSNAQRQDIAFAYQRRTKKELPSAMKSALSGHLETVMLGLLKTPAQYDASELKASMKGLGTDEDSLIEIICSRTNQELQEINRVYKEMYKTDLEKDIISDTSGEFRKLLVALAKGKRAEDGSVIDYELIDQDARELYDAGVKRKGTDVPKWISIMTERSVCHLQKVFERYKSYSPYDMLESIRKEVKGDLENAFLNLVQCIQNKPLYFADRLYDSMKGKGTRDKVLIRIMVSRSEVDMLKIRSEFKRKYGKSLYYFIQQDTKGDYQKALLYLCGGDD
Description for CCK2R: Cells were incubated with the indicated radio labeled ligand in the presence or absence of increasing concentrations of either CCK8, G17 or rhPG. The relative binding affinity of the gastrin like peptides for the specific binding sites for rhPG (FIGS. 8A and B) (Annexin II) and CCK8 (FIG. 8C) to CCK2R was calculated.
In a few experiments, ^125I-Bolton Hunter-CCK-8 (Amersham Biosciences, Piscataway, N.J.) was used as the radiolabeled ligand and the RBA of gastrin like peptides for displacing the binding of ^125I-BH-CCK8 to AR42J cells examined by our published methods (Singh et al, 1995).
Text for thioredoxin: Briefly, transgenic mice expressing human progastrin (PS21) and wild type mice were divided into 3 groups and immunized with (a) recombinant thioredoxin, (b) a recombinant fusion protein where human progastrin was fused with thioredoxin and recombinant progastrin, all proteins were expressed in E. coli and purified from cell extract. Each protein was emulsified using CFA/IFA (Sigma) as an adjuvant. The mice that received vaccine emulsified using CFA on day 1 followed by two subsequent immunization using IFA on day 21 and day 42. All injections were administered subcutaneously. Mice were bled and serum prepared to estimate the titers once a week for 3 weeks, 15 days after the final immunization.
The antibody tires in serum were determined by solid phase ELISA using limiting dilution method. Briefly, 96 wells PVC ELISA plates (Falcon) were coated with 3 different recombinant protein expressed in E. coli that were used to vaccinate mice i.e. recombinant thioredoxin, Thioredoxin-PG fusion protein and recombinant PG. Recombinant proteins were dissolved in carbonate buffer pH 9.0 and coated at a concentration of 50 μg/50 μl/well. The plates were incubated overnight at 4° C. Following day the plates were flipped and the well were blocked with 100 μl 2% non fat dry milk (NFDM) and plated were incubated at 37° C. for 3-4 hours. […] The ELISA plated were them read in plate reader at 490 nm.

Consider “CCK: cholecystokinin (CCK-8), amidated peptide closely related to gastrin”, for which, in assay [1], the “displacement of binding of radio-labeled rhPG / binding affinity for PG binding sites” value was “negligible binding affinity”.
For the molecule “G17: 17 amino acid C-terminally amidated gastrin peptide”, the “displacement of binding of radio-labeled rhPG / binding affinity for PG binding sites” value in assay [1] is listed as “negligible binding affinity”.
On to “thioredoxin: recombinant bacterial thioredoxin carrier protein expressed in E. coli, used alone as immunogen [reference compound]”, for which the anti-PG-antibody titers result with progastrin was “not effective at all”. Further, in assay [2], the “development of ACF in response to AOM” value is reported as “significantly enhanced”. Besides, in the assay with thioredoxin, the anti-thioredoxin-antibody titers result is given as “significant titers”.

B1: PG: full-length recombinant human progastrin PG1-80, 80 amino acids (SEQ ID NO:3), generated in E. coli (protein)
chain: SWKPRSQQPDAPLGTGANRDLELPWLEQQGPASHHRRQLGPQGPPHLVADPSKKQGPWLEEEEEAYGWMDFGRRSAEDEN
modifications: sequence of progastrin peptide expressed by recombinant expression vector
With B1, the anti-PG-antibody titers entry in the assay on progastrin is listed as “much less effective”; in the assay on progastrin (listed as PG peptide), “much lower levels”. Further, in assay [2], the “development of ACF in response to AOM” value is reported as “significantly enhanced”. Also, the “displacement of binding of radio-labeled rhPG / binding affinity for PG binding sites” value in assay [1] is listed as “dose-dependently displaced”. Also, in the assay with CCK2R, the “displacement of binding of 125I-BH-CCK8 to CCK2R” value is “largely ineffective”. The “growth factor-like effects on cells” value in assay [3] is given as “potent growth factor-like effects”.

B2: rhPG fusion protein (FP): full length human progastrin protein fused with carrier protein thioredoxin (from bacteria), expressed in E. coli, used as immunogen (protein)
chain: SWKPRSQQPDAPLGTGANRDLELPWLEQQGPASHHRRQLGPQGPPHLVADPSKKQGPWLEEEEEAYGWMDFGRRSAEDEN
modifications: left off: large carriers; small tags and cut ends
notes: full length human progastrin protein fused with carrier protein thioredoxin (from bacteria), expressed in E. coli, used as immunogen
Take B2: in assay [4], the “CA tumor weights reduced compared to control mice” value was 15-30%. In the assay with progastrin (Balb/C, FVB/N and FABP-PG mice, within 4-8 weeks of vaccination), the “titers of specific anti-hPG-Abs” value is recorded as “very high titers”. Moreover, in the assay on progastrin (PS21 mice), the “generation of PG antibodies, FP vs PG alone” value stood at 2 fold. For the same molecule, the anti-PG-antibody titers was 2 fold to much higher titers in the assay on progastrin and “strong response” in the assay on progastrin (listed as progastrin fusion protein). Moreover, in assay [5], the “total number of tumors” value is on record as “significantly (p<0.05) reduced”. Also, the tumor burden/mouse entry in assay [5] is reported as “significantly (p<0.05) reduced”. Besides, the “development of ACF in response to AOM” value in assay [2] was “complete attenuation”.
